Drawing on patent US20260184782A1 (TWIST BIOSCIENCE, published 2026), this text covers Kd, koff and kon for 28 molecules.

Where a chain is given by its changes, count along the chain named.

For the experiment, the target named is T1, recombinant human TIGIT (human, UniProt Q495A1 22-141, limits assumed).
T1 construct: recombinant human TIGIT used in Carterra SPR; also called hTIGIT
T1 sequence (looked up): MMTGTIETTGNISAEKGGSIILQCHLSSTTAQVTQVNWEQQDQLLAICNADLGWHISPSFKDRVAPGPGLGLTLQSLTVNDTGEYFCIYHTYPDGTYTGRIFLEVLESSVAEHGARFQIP
The experiment in a line: SPR Carterra, average. How it is done: Binding affinities of VHH-Fc proteins to recombinant human TIGIT were measured by SPR using a Carterra instrument (Table 10A). […] Average values reported from measurements from 1-2 samples.

As usually defined, the Kd is the constant that tells how readily two partners part at equilibrium. For orientation: koff means a measure of how fast the partners let go of each other. In general, kon refers to the second-order rate constant of association.

B1: TIGIT-SC108 (Fc fusion)
VHH: EVQLVESGGGLVQPGGSLRLSCAASGNTFSGGFMGWFRQAPGKEREWVASVLRGGYTWYADSVKGRFTISADNSKNTAYLQMNSLKPEDTAVYYCANGGRVWWAFDYWGQGTLVTVSS
notes: VHH-Fc fusion in assay
Turning to B1, the Kd came to 8.9 nM, the koff worked out at 0.00181 s⁻¹ and the kon turned out to be 203000 M⁻¹ s⁻¹.

B2: TIGIT-SC21 (Fc fusion)
VHH: B1 VHH with N97R, R100A, V101G, W102S, W103D, A104W, D106G, Y107P
notes: VHH-Fc fusion in assay
Turning to B2, the Kd came to 7.57 nM, the koff was found to be 0.000578 s⁻¹ and the association rate constant (kon) amounted to 86600 M⁻¹ s⁻¹.

B3: TIGIT-SC10 (Fc fusion)
VHH: B1 VHH with N97S, G98D, G99P, R100W, V101G, W102T, W103R, A104Y, Y107H
notes: VHH-Fc fusion in assay
For B3, the Kd was 0.328 nM, the koff worked out at 0.0002 s⁻¹ and the kon is 566000 M⁻¹ s⁻¹.

B4: TIGIT-SC197 (Fc fusion)
VHH: EVQLVESGGGLVQPGGSLRLSCAASGFTFDRSWMGWFRQAPGKEREWVASVLRGGYTWYADSVKGRFTISADNSKNTAYLQMNSLKPEDTAVYYCAREGRTAGWFDPWGQGTLVTVSS
notes: VHH-Fc fusion in assay
As to B4, the Kd stood at 9.35 nM, the koff was 0.00156 s⁻¹ and the on-rate (kon) is 168000 M⁻¹ s⁻¹.

B5: TIGIT-SC175 (Fc fusion)
VHH: EVQLVESGGGLVQPGGSLRLSCAASGNTFSGGFMGWFRQAPGKEREWVASVLRGGYTWYADSVKGRFTISADNSKNTAYLQMNSLKPEDTAVYYCTTDALRFLEWPWWGQGTLVTVSS
notes: VHH-Fc fusion in assay
In the case of B5, the Kd came to 14.4 nM, the off-rate (koff) came out at 0.00124 s⁻¹ and the on-rate (kon) was 101000 M⁻¹ s⁻¹.

B6: TIGIT-SC61 (Fc fusion)
VHH: B1 VHH with A96T, N97R, G99D, R100T, V101A, W102M, W103A, A104T
notes: VHH-Fc fusion in assay
Take B6: the Kd was found to be 59.2 nM, the dissociation rate constant (koff) is 0.0037 s⁻¹ and the kon was 63000 M⁻¹ s⁻¹.

B7: TIGIT-SC160 (Fc fusion)
VHH: EVQLVESGGGLVQPGGSLRLSCAASGNTFSGGFMGWFRQAPGKEREWVASVLRGGYTWYADSVKGRFTISADNSKNTAYLQMNSLKPEDTAVYYCAREGRSSSPWFDPWGQGTLVTVSS
notes: VHH-Fc fusion in assay
As for B7, the Kd is 31.6 nM, the koff is 0.00265 s⁻¹ and the kon is 105000 M⁻¹ s⁻¹.

B8: TIGIT-SC6 (Fc fusion)
VHH: B7 VHH with R97I, E98S, G99P, R100V, S101A, S102W, S103H, P104A, W105K, P108S
notes: VHH-Fc fusion in assay
Turning to B8, the Kd is 19.4 nM, the koff is 0.00129 s⁻¹ and the kon stood at 66700 M⁻¹ s⁻¹.

B9: TIGIT-SC114 (Fc fusion)
VHH: B7 VHH with R97T, E98V, R100G, S101R, S102Q, S103R, P104T, W105L, P108D
notes: VHH-Fc fusion in assay
Consider B9, for which the dissociation constant Kd worked out at 45.2 nM, the koff was 0.00227 s⁻¹ and the association rate constant (kon) turned out to be 50700 M⁻¹ s⁻¹.

B10: TIGIT-SC110 (Fc fusion)
VHH: B7 VHH with E98D, G99H, R100T, S101A, S102M, S103V, P104A, W105P, P108Y
notes: VHH-Fc fusion in assay
For the molecule B10, the Kd turned out to be 1.44 nM, the koff was determined as 0.000765 s⁻¹ and the kon was 531000 M⁻¹ s⁻¹.

B11: TIGIT-SC155 (Fc fusion)
VHH: B7 VHH with R97G, E98D, G99Y, S101G, S102F, S103E, P104M, W105A
notes: VHH-Fc fusion in assay
In the case of B11, the Kd is 126 nM, the koff amounted to 0.00647 s⁻¹ and the kon came to 51300 M⁻¹ s⁻¹.

B12: TIGIT-SC170 (Fc fusion)
VHH: EVQLVESGGGLVQPGGSLRLSCAASGHTFSPSWMGWFRQAPGKEREWVASVLRGGYTWYADSVKGRFTISADNSKNTAYLQMNSLKPEDTAVYYCTTELRWELQQPDYWGQGTLVTVSS
notes: VHH-Fc fusion in assay
As to B12, the Kd was no more than 0.222 nM, the koff was no more than 1e-05 s⁻¹ and the kon was 45000 M⁻¹ s⁻¹.

B13: TIGIT-SC38 (Fc fusion)
VHH: EVQLVESGGGLVQPGGSLRLSCAASGFTFSEYPMGWFRQAPGKEREFVAVVNWNGDSTYYADSVKGRFTISADNSKNTAYLQMNSLKPEDTAVYYCARGSDWYRYWGQGTLVTVSS
notes: VHH-Fc fusion in assay
B13: the Kd is 0.505 nM, the koff was 0.000237 s⁻¹ and the kon was found to be 469000 M⁻¹ s⁻¹.

B14: TIGIT-SC39 (Fc fusion)
VHH: EVQLVESGGGLVQPGGSLRLSCAASGRTVSSHAMGWFRQAPGKEREFVAAITSSGSTYYADSVKGRFTISADNSKNTAYLQMNSLKPEDTAVYYCASSYSSSSGLGDIWGQGTLVTVSS
notes: VHH-Fc fusion in assay
Regarding B14, the Kd was no more than 0.0423 nM, the koff is no more than 1e-05 s⁻¹ and the kon is 342000 M⁻¹ s⁻¹.

B15: TIGIT-SC14 (Fc fusion)
VHH: EVQLVESGGGLVQPGGSLRLSCAASGSISSIHAMGWFRQAPGKEREFVATISRSGVGTFYADSVKGRFTISADNSKNTAYLQMNSLKPEDTAVYYCASSYSSSSGLGDIWGQGTLVTVSS
notes: VHH-Fc fusion in assay
As to B15, the Kd is no more than 0.00513 nM, the koff was no more than 1e-05 s⁻¹ and the on-rate (kon) was 1.95e+06 M⁻¹ s⁻¹.

B16: TIGIT-SC3 (Fc fusion)
VHH: EVQLVESGGGLVQPGGSLRLSCAASGTFQRINAMGWFRQAPGKEREFVSTINWSGSNTYYADSVKGRFTISADNSKNTAYLQMNSLKPEDTAVYYCASSYSSSSGLGDIWGQGTLVTVSS
notes: VHH-Fc fusion in assay
Take B16: the Kd was no more than 0.00502 nM, the koff is no more than 1e-05 s⁻¹ and the kon came to 4.71e+06 M⁻¹ s⁻¹.

B17: TIGIT-SC77 (Fc fusion)
VHH: EVQLVESGGGLVQPGGSLRLSCAASGGAFSTVAMGWFRQAPGKEREAVASIWRSGDSTYYADSVKGRFTISADNSKNTAYLQMNSLKPEDTAVYYCASSYSSSSGLGDIWGQGTLVTVSS
notes: VHH-Fc fusion in assay
As to B17, the Kd amounted to 2.07 nM, the koff was 0.000837 s⁻¹ and the kon is 1.17e+06 M⁻¹ s⁻¹.

B18: TIGIT-SC19 (Fc fusion)
VHH: EVQLVESGGGLVQPGGSLRLSCAASGRTYDAMGWFRQAPGKEREWVASVLRGGYTWYADSVKGRFTISADNSKNTAYLQMNSLKPEDTAVYYCARDVDYRFDSWGQGTLVTVSS
notes: VHH-Fc fusion in assay
For the molecule B18, the Kd came out at 1.07 nM, the koff came out at 0.0012 s⁻¹ and the kon stood at 1.12e+06 M⁻¹ s⁻¹.

B19: TIGIT-SC58 (Fc fusion)
VHH: EVQLVESGGGLVQPGGSLRLSCAASGFTLGYYVMGWFRQAPGKEREFVATINWSGTLTSYADSVKGRFTISADNSKNTAYLQMNSLKPEDTAVYYCARWVGPKYYFDYWGQGTLVTVSS
notes: VHH-Fc fusion in assay
B19: the Kd was no more than 0.0118 nM, the koff is no more than 1e-05 s⁻¹ and the on-rate (kon) worked out at 860000 M⁻¹ s⁻¹.

B20: TIGIT-SC48 (Fc fusion)
VHH: EVQLVESGGGLVQPGGSLRLSCAASGRTSDIYGMGWFRQAPGKEREAVASIWRSGGNTYYADSVKGRFTISADNSKNTAYLQMNSLKPEDTAVYYCASSTLDVWGQGTLVTVSS
notes: VHH-Fc fusion in assay
Regarding B20, the Kd came to 0.713 nM, the koff was 0.00551 s⁻¹ and the kon turned out to be 7.72e+06 M⁻¹ s⁻¹.

B21: TIGIT-SC47 (Fc fusion)
VHH: EVQLVESGGGLVQPGGSLRLSCAASGRALNMYVMGWFRQAPGKERELVAAIDWSGGSALYADSVKGRFTISADNSKNTAYLQMNSLKPEDTAVYYCASGDGYSMDYFDPWGQGTLVTVSS
notes: VHH-Fc fusion in assay
In the case of B21, the Kd is no more than 0.204 nM, the koff was no more than 1e-05 s⁻¹ and the kon was found to be 48900 M⁻¹ s⁻¹.

B22: TIGIT-SC34 (Fc fusion)
VHH: EVQLVESGGGLVQPGGSLRLSCAASGTTFSPYTMGWFRQAPGKEREFVASINSGSRTNYADSVKGRFTISADNSKNTAYLQMNSLKPEDTAVYYCVRSEIGWGQGTLVTVSS
notes: VHH-Fc fusion in assay
As for B22, the dissociation constant Kd is no more than 0.0105 nM, the koff is no more than 1e-05 s⁻¹ and the kon was determined as 1.31e+06 M⁻¹ s⁻¹.

B23: TIGIT-SC1 (Fc fusion)
VHH: EVQLVESGGGLVQPGGSLRLSCAASGFTLNDYAMGWFRQAPGKERELVAWIARYDGSTLYADSVKGRFTISADNSKNTAYLQMNSLKPEDTAVYYCARVDWALNAAPFDYWGQGTLVTVSS
notes: VHH-Fc fusion in assay
On to B23, for which the Kd was determined as 0.467 nM, the off-rate constant (koff) is 0.000165 s⁻¹ and the kon worked out at 246000 M⁻¹ s⁻¹.

B24: TIGIT-SC78 (Fc fusion)
VHH: B23 VHH with F27L
notes: VHH-Fc fusion in assay
As to B24, the Kd came out at 2.02 nM, the off-rate constant (koff) stood at 0.000493 s⁻¹ and the kon came out at 244000 M⁻¹ s⁻¹.

B25: TIGIT-SC107 (Fc fusion)
VHH: EVQLVESGGGLVQPGGSLRLSCAASGFAFSSDWMGWFRQAPGKEREGVAWIARYDGSTLYADSVKGRFTISADNSKNTAYLQMNSLKPEDTAVYYCAKDLDSSGRFFQHWGQGTLVTVSS
notes: VHH-Fc fusion in assay
For B25, the dissociation constant Kd amounted to 0.693 nM, the koff worked out at 0.000148 s⁻¹ and the kon was determined as 213000 M⁻¹ s⁻¹.

B26: TIGIT-SC63 (Fc fusion)
VHH: EVQLVESGGGLVQPGGSLRLSCAASGRAIGSYGMGWFRQAPGKEREFVATISVSGVYTYYADSVKGRFTISADNSKNTAYLQMNSLKPEDTAVYYCARATPGGVVPWGQGTLVTVSS
notes: VHH-Fc fusion in assay
Take B26: the Kd is no more than 0.156 nM, the off-rate constant (koff) is no more than 1e-05 s⁻¹ and the kon came to 64300 M⁻¹ s⁻¹.

B27: TIGIT-SC97 (Fc fusion)
VHH: EVQLVESGGGLVQPGGSLRLSCAASGTAASFNPMGWFRQAPGKEREFVAAISWSGGSTNYADSVKGRFTISADNSKNTAYLQMNSLKPEDTAVYYCVTYSAYDFRNAWGQGTLVTVSS
notes: VHH-Fc fusion in assay
On to B27, for which the Kd was found to be 0.447 nM, the koff stood at 0.000231 s⁻¹ and the kon is 942000 M⁻¹ s⁻¹.

B28: TIGIT-SC95 (Fc fusion)
VHH: EVQLVESGGGLVQPGGSLRLSCAASGPTFSTNVMGWFRQAPGKEREFVSSIHWGGSSTVYADSVKGRFTISADNSKNTAYLQMNSLKPEDTAVYYCVTYSAYDFRNAWGQGTLVTVSS
notes: VHH-Fc fusion in assay
As to B28, the Kd turned out to be 2.55 nM, the koff amounted to 0.00352 s⁻¹ and the kon came to 1.38e+06 M⁻¹ s⁻¹.
